# Positions count from the first letter of the chain named. In names and notes the source's numbering stands.
# T1: human CD20 (Homo sapiens CD20) (Homo sapiens, UniProt P11836 1-297)
# T1 construct: Multi-pass cell surface antigen; present on Raji, Ramos, WSU-DLCL2 cells, human CD19+ B cells, or on stably transfected CHO cells (CD20/CHO); also called hCD20
# T1 sequence: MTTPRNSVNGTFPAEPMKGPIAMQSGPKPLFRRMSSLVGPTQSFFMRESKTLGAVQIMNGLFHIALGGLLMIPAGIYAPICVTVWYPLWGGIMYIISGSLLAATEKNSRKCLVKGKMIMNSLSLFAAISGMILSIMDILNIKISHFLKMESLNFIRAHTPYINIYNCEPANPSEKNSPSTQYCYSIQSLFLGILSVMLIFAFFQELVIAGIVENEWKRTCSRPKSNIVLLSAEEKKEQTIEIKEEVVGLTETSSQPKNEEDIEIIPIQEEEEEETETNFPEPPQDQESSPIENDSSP
# T2: human CD37 (Homo sapiens CD37) (Homo sapiens, UniProt P11049 1-281)
# T2 construct: Multi-pass cell surface antigen; present on Raji, Ramos, WSU-DLCL2 cells, human B cells, or on stably transfected CHO cells (CD37/CHO); also called hCD37
# T2 sequence: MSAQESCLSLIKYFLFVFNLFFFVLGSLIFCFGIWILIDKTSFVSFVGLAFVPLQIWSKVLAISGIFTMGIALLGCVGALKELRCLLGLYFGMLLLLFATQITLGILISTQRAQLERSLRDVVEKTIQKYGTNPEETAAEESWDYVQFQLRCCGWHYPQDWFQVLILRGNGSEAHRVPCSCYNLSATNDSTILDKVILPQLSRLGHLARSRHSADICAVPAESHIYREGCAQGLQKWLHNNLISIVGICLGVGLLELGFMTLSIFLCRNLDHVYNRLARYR
# T3: cynomolgus monkey CD37 (Macaca fasicularis CD37) (cynomolgus monkey (Macaca fasicularis …, UniProt P11049 1-281 (human entry)))
# T3 construct: On CD20+ or CD19+ B cells in cynomolgus monkey PBMCs; also called cynoCD37
# T3 chain: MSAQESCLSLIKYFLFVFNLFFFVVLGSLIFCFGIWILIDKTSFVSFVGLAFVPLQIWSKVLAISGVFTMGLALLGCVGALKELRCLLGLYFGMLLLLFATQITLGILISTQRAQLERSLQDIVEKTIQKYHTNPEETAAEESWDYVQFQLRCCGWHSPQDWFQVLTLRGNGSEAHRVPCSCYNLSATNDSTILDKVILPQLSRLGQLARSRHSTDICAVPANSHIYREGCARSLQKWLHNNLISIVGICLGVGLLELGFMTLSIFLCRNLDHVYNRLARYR
# B1: anti-hCD20 Ab1-T6 (antibody, human IgG1, kappa, name in Kabat numbering, V domains shown)
# VH: QVQLVQSGAEVKKPGSSVKVSCKASGYTFTSYNMHWVRQAPGQGLEWMGRIYPGNGDTSYNQKFQGRVTLTVDKSSSTAYMELSSLRSEDTAVYFCARVVYYSNSYWYFDVWGTGTMVTVSS
# VL: EIVLTQSPDFQSVTPKEKVTITCRASSSVSYMHWYQQKPDQSPKPLIYAPSNLASGVPSRFSGSGSGTDYTLTINSLEAEDAATYYCQQWSFNPPTFGAGTKLEIKR
# notes: IgG1; also called variant #3
# B2: anti-hCD20 Ab1-T7 (antibody, human IgG1, kappa, name in Kabat numbering, V domains shown)
# VH: B1 VH with R50A, N55E
# VL: B1 VL
# notes: IgG1; also called variant #7
# B3: anti-hCD20 Ab1-T8 (antibody, human IgG1, kappa, name in Kabat numbering, V domains shown)
# VH: B1 VH with R50A, S59D
# VL: B1 VL
# notes: IgG1; also called variant #8
# B4: rituximab (antibody, V domains shown)
# VH: QVQLQQPGAELVKPGASVKMSCKASGYTFTSYNMHWVKQTPGRGLEWIGAIYPGNGDTSYNQKFKGKATLTADKSSSTAYMQLSSLTSEDSAVYYCARSTYYGGDWYFNVWGAGTTVTVSA
# VL: QIVLSQSPAILSASPGEKVTMTCRASSSVSYIHWFQQKPGSSPKPWIYATSNLASGVPVRFSGSGSGTSYSLTISRVEAEDAATYYCQQWTSNPPTFGGGTKLEIK
# B5: anti-hCD37 Ab1 (antibody, human IgG1, kappa, V domains shown)
# VH: QVQLVQSGAEVKKPGASVKVSCKASGYTFTGYNMNWVRQNNGQRLEWMGNIDPYYGGTTYNRKFKGRVTITVDTSASTAYMELKSLRSEDTAVYYCARSVGPMDYWGQGTLVTVSS
# VL: DIQMTQSPSSLSASVGDRVTITCRTSENVYSYLAWYQQKPGKAPKLLIYFAKTLAEGVPSRFSGSGSGTQFTLTISSLQPEDSASYYCQHHSDNPWTFGGGTELEIKR
# notes: Humanized IgG1/kappa derived from G28.1; also called aCD37 Ab1
# B6: anti-hCD37 Ab1.N18 (antibody, human IgG1, kappa, name in Kabat numbering, V domains shown)
# VH: B5 VH with M34L, K65Q
# VL: B5 VL with S31N, L54I, D93E
# notes: IgG1 variant of anti-hCD37 Ab1
# B7: anti-hCD37 Ab1.N19 (antibody, human IgG1, kappa, name in Kabat numbering, V domains shown)
# VH: B5 VH with M34L, K65Q, M103L
# VL: B5 VL with S31N, T53S, S92G
# notes: as for B6
# B8: anti-hCD37 Ab1.N12 (antibody, human IgG1, kappa, V domains shown)
# VH: B5 VH with M34L, K65Q
# VL: B5 VL with T53S, D93E
# notes: anti-hCD37 Ab1 with VH M34L + K64Q and VL T53S + D93E; also called anti-CD37 Ab1.N12
# B9: anti-hCD37 Ab1.A1 (antibody, human IgG1, kappa)
# heavy: not shown
# light: DIQMTQSPSSLSASVGDRVTITCRTSENVYNYLAWYQQKPGKAPKLLIYFAKTLAEGVPSRFSGSGSGTQFTLTISSLQPEDSASYYCQHHSDNPWTFGGGTELEIKRTVAAPSVFIFPPSDEQLKSGTASVVCLLNNFYPREAKVQWKVDNALQSGNSQESVTEQDSKDSTYSLSSTLTLSKADYEKHKVYACEVTHQGLSSPVTKSFNRGEC
# notes: anti-hCD37 Ab1 with VH-M34V + VL-S31N; also called anti-CD37 Ab1.A1
# B10: anti-hCD37 Ab1.A1.1 (antibody)
# heavy: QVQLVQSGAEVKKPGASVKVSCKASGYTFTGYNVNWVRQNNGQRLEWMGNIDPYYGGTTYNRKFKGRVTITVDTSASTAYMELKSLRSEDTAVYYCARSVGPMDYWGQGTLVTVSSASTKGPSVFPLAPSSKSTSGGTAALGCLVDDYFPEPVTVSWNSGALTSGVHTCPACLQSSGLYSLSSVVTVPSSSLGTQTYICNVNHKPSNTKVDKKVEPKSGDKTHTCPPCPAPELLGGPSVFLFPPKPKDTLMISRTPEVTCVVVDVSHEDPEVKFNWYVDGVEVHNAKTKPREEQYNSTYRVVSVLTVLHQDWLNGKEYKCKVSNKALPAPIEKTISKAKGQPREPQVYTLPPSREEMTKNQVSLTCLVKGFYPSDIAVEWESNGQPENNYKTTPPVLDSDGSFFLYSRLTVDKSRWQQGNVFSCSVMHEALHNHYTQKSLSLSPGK
# light: B9 light with S131K, Q160C, S162C, C214S
# notes: Ab1.A1 with HC K147D, F170C, V173C, C220G, K409R and LC S131K, Q160C, S162C, C214S; also called α-CD37 Ab1.A1.1
# B11: anti-hCD20 Ab1.2.2 (antibody, human IgG4 S228P, kappa)
# heavy: QVQLVQSGAEVKKPGSSVKVSCKASGYTFTSYNMHWVRQAPGQGLEWMGAIYPGNGDTSYNQKFQGRVTLTVDKSSSTAYMELSSLRSEDTAVYFCARVVYYSNSYWYFDVWGTGTMVTVSSASTKGPSVFPLAPCSRSTSESTAALGCLVKDYFPEPVTVSWNSGALTSGVHTFPAVLQSSGLYSLSSVVTVPSSSLGTKTYTCNVDHKPSNTKVDKRVESKYGPPCPPCPAPELLGGPDVFLFPPKPKDTLMISRTPEVTCVVVDVSHEDPEVKFNWYVDGVEVHNAKTKPREEQYNATYRVVSVLTVLHQDWLNGKEYKCKVSNKALPAPIEKTISKAKGQPREPQVYTLPPSREMTKNQVSLTCLVKGFYPSDIAVEWESNGQPENNYKTTPPVLDSDGSFFLYSKLTVDKSRWQQGNVFSCSVMHEALHNHYTQKSLSLSPGK
# light: EIVLTQSPDFQSVTPKEKVTITCRASSSVSYMHWYQQKPDQSPKPLIYAPSNLASGVPSRFSGSGSGTDYTLTINSLEAEDAATYYCQQWSFNPPTFGAGTKLEIKRTVAAPSVFIFPPSDEQLKSGTASVVCLLNNFYPREAKVQWKVDNALQSGNSQESVTEQDSKDSTYSLSSTLTLSKADYEKHKVYACEVTHQGLSSPVTKSFNRGEC
# notes: Ab1.2 with S239D, S298A
# B12: anti-hCD20 Ab1.2.2.1 (antibody, human IgG4 S228P, kappa)
# heavy: QVQLVQSGAEVKKPGSSVKVSCKASGYTFTSYNMHWVRQAPGQGLEWMGAIYPGNGDTSYNQKFQGRVTLTVDKSSSTAYMELSSLRSEDTAVYFCARVVYYSNSYWYFDVWGTGTMVTVSSASTKGPSVFPLAPCSRSTSESTAALGCLVKDYFPEPVTVSWNSGALTSGVHTFPAVLQSSGLYSLSSVVTVPSSSLGTKTYTCNVDHKPSNTKVDKRVESKYGPPCPPCPAPELLGGPDVFLFPPKPKDTLMISRTPEVTCVVVDVSHEDPEVKFNWYVDGVEVHNAKTKPREEQYNATYRVVSVLTVLHQDWLNGKEYKCKVSNKALPAPIEKTISKAKGQPREPQVYTLPPSREEMTKNQVSLTCLVKGFYPSDIAVEWESNGQPENNYKTTPPVLRSDGSFFLYSELTVDKSRWQQGNVFSCSVMHEALHNHYTQKSLSLSPGK
# light: B11 light
# notes: Ab1.2.2 with D399R and K409E in the CH3; also called α-CD20 Ab1.2.2.1
# How the values were obtained:
# [1] = molecular target: T1, human CD20 (Homo sapiens CD20); assay: FACS on Raji cells, crude transfection supernatant
# Procedure: Raji cells (ATCC, cat no. CCL-86; a Burkitt's B cell lymphoma cell line) are known to express human CD20 (hCD20). […] The tubes were incubated with shaking for one hour at RT, washed once with 3 mL of FACS buffer, and resuspended in 100 μl of FACS blocking buffer containing 5 μg/mL of the various anti-CD20 antibodies to be tested. The cells were incubated together with the antibodies for 30 minutes at room temperature. […] The tubes were shaken at RT for 30 minutes at 200 rpm and then washed twice in FACS buffer. The cells were then fixed in 2% formaldehyde in phosphate buffered saline (PBS) containing 2% fetal bovine serum (FBS) and subjected to FACS analysis in a FACSCalibur™ benchtop analyzer (BD Biosciences).
# [2] = molecular target: T1, human CD20 (Homo sapiens CD20); assay: FACS on WSU-DLCL2, Raji and Ramos cells, 10 µg/mL
# [3] = molecular target: T1, human CD20 (Homo sapiens CD20); assay: FACS on Raji cells, titration
# Procedure: (§1) The tubes were incubated with shaking for one hour at RT, washed once with 3 mL of FACS buffer, and resuspended in 100 μl of FACS blocking buffer containing 5 μg/mL of the various anti-CD20 antibodies to be tested. The cells were incubated together with the antibodies for 30 minutes at room temperature. […] The tubes were shaken at RT for 30 minutes at 200 rpm and then washed twice in FACS buffer. The cells were then fixed in 2% formaldehyde in phosphate buffered saline (PBS) containing 2% fetal bovine serum (FBS) and subjected to FACS analysis in a FACSCalibur™ benchtop analyzer (BD Biosciences).
# [4] = molecular target: T2, human CD37 (Homo sapiens CD37); assay: FACS on WSU-DLCL2, Raji and Ramos cells, 10 µg/mL
# [5] = molecular target: T3, cynomolgus monkey CD37 (Macaca …); assay: FACS on CD20+ gated cynomolgus monkey PBMCs, compared with anti-hCD37 Ab1
# Procedure: (§2) After processing, these cells were analyzed by FACS. The CD20⁺ cells were gated out as indicated by the boxed areas, and binding of the anti-CD37 antibodies to this subset of cells was assessed.
# (§3) The plate was shaken at 4° C. for 1 hour, followed by centrifugation at 1500 rpm for 15 minutes. The liquid was flicked out of the wells. […] The PBMCs were finally fixed for FACS analysis by adding 200 μl/well of 2% paraformaldehyde in 1×PBS. The CD20⁺ cells were gated out for checking CD37 antigen binding only in this subset of cells within the PBMCs.
# [6] = molecular target: T3, cynomolgus monkey CD37 (Macaca …); assay: FACS on CD20+ gated cynomolgus monkey PBMCs
# Procedure: as §2, §3
# [7] = molecular target: T3, cynomolgus monkey CD37 (Macaca …); assay: FACS, ratio of EC50 on cynomolgus monkey B cells to EC50 on human B cells
# Procedure: (§4) Isolated PBMCs from cynomolgus monkey and a healthy human donor were centrifuged at room temperature for 3 minutes at 1500 rpm and resuspended in FACS blocking buffer (FACS buffer+10% NGS+2% NRabS). These washed PBMCs were put into the wells of a 96-well round bottom microtiter plate (1×10⁶ cells/well). The plate was shaken at 150 rpm for 30 minutes at room temperature, followed by washing with FACS buffer. Then the cells were pelleted and stained with FACS blocking buffer (100 μl/well) containing 10 μg/mL of FITC-conjugated anti-CD19 antibody and APC-conjugated anti-CD37 IgG1 variant antibodies or isotype huIgG1 control antibody. Antibody concentrations started at 80 μg/mL (for cynomolgus monkey PBMCs) or 10 μg/mL (for human PBMCs) and were further diluted in a 1:2 dilution series. The plate was shaken at 150 rpm for 30 minutes at 4° C. and washed twice with FACS buffer.
# [8] = molecular target: T2, human CD37 (Homo sapiens CD37); assay: FACS, APC-labelled antibody on CD19+ B cells of human PBMCs
# Procedure: as §4
# [9] = molecular target: T3, cynomolgus monkey CD37 (Macaca …); assay: FACS, APC-labelled antibody on CD19+ B cells of cynomolgus monkey PBMCs
# Procedure: as §4
# [10] = molecular target: T2, human CD37 (Homo sapiens CD37); assay: FACS on CHO cells stably expressing hCD37 (CD37/CHO), EC50 of Geo MFI
# Procedure: as §1
# (§5) CHO cells were transfected hCD20 and, independently, with hCD37. Two cell lines, one stably expressing hCD20 (CD20/CHO) and the other stably expressing hCD37 (CD37/CH0), were derived from these transfectants. […] The cell lines used were CD20/CHO and CD37/CHO as explained above, rather than Raji cells. Cells were centrifuged for 5 minutes at 1500 rpm for washing, rather than 3 minutes at 1500 rpm. After washing, the cells and primary antibodies were incubated together in a volume of 50 μL rather than 100 μL. Primary antibodies were added at various concentrations to create a dose/response curve, rather than all antibodies being at a concentration of 5 μg/mL.
# [11] = molecular target: T1, human CD20 (Homo sapiens CD20); assay: FACS on CHO cells stably expressing hCD20 (CD20/CHO)
# Procedure: as §1
# (§6) CHO cells were transfected hCD20 and, independently, with hCD37. Two cell lines, one stably expressing hCD20 (CD20/CHO) and the other stably expressing hCD37 (CD37/CH0), were derived from these transfectants. […] The cell lines used were CD20/CHO and CD37/CHO as explained above, rather than Raji cells. Cells were centrifuged for 5 minutes at 1500 rpm for washing, rather than 3 minutes at 1500 rpm.
# [12] = molecular target: T1, human CD20 (Homo sapiens CD20); assay: FACS on CHO cells stably expressing hCD20 (CD20/CHO), EC50 of Geo MFI
# Procedure: as §1, §5
# [13] = molecular target: T2, human CD37 (Homo sapiens CD37); assay: FACS on CHO cells stably expressing hCD37 (CD37/CHO)
# Procedure: as §1, §6
binder,measurement,setting,value
B1,binding result,[1],binds
B2,binding result,[2],binds
B3,binding result,[1],binds
B4,EC50,[3],18.2 nM
B5,binding result,[4],binds
B6,binding result,[5],binds
B7,binding result,[6],binds
B8,binding result,[6],binds
B9,fold less potent than its binding of human B cells,[7],62.7 fold
same,EC50,[8],4.05 nM
same,EC50,[9],254 nM
B10,EC50,[10],1.33 nM
same,binding result,[11],no binding (tested: about 0.0002 nM to about 30 nM)
B11,EC50,[3],26.3 nM
B12,EC50,[12],5.02 nM
same,binding result,[13],no binding (tested: about 0.0002 nM to about 30 nM)

# From patent US20240059785A1 (QILU PUGET SOUND BIOTHERAPEUTICS, published 2024)
